Drawing on article PMC6174099, this text covers stoichiometry N for 1 molecule.

For the test, the target named is T1, Heat shock factor 1 (HSF1), wild-type, monomer (human), Q00613.
T1 chain: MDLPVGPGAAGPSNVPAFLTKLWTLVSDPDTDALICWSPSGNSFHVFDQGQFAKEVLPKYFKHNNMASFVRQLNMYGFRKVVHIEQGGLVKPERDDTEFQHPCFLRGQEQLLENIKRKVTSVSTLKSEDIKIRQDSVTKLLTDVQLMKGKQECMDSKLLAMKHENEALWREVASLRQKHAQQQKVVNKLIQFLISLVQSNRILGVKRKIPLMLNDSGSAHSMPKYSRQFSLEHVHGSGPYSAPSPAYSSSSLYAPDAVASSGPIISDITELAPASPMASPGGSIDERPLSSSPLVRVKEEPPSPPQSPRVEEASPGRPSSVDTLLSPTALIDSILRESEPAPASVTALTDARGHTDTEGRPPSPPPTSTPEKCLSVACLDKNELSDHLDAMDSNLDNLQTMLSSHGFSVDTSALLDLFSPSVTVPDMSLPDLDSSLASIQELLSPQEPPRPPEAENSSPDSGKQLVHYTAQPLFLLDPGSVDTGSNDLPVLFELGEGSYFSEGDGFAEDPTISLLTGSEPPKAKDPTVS
Put plainly: SEC. As to conditions: remark: other sources report otherwise.

B1: Heat shock factor 1 (HSF1), wild-type, monomer, Q00613 1-529 (natural protein)
chain: T1 chain
The stoichiometry N is a count of units in the complex or per binding partner. As for B1, the stoichiometry N is 3.
